Assay results published in patent US20260008815A1, “CYCLIC PEPTIDE OR SALT THEREOF, AND USES THEREOF” (FUJIFILM Corporation, priority 2023, published 2026).
Bridge positions count the residues as written; N and C are the ends. Ends that are not written are not given here. COCH2 = acetyl group that carries the bridge

B1: cyclic peptide SEQ ID NO: 208 (peptide)
peptide: YCEENYLLPEQYQYFIYFK(COCH2)Y
modifications: thioether 2-19 (inferred)
B2: cyclic peptide SEQ ID NO: 233 (peptide)
peptide: YCEENYLDEEQYQYFIYFK(COCH2)Y
modifications: thioether 2-19 (inferred)
B3: cyclic peptide SEQ ID NO: 223 (peptide)
peptide: YCEENYLDIEQYQYFIYFK(COCH2)Y
modifications: thioether 2-19 (inferred)
B4: cyclic peptide SEQ ID NO: 236 (peptide)
peptide: YCEENYLDPGQYQYFIYFK(COCH2)Y
modifications: thioether 2-19 (inferred)
B5: cyclic peptide SEQ ID NO: 220 (peptide)
peptide: YCEENYLHPEQYQYFIYFK(COCH2)Y
modifications: thioether 2-19 (inferred)
B6: cyclic peptide SEQ ID NO: 212 (peptide)
peptide: YCEENYLYPEQYQYFIYFK(COCH2)Y
modifications: thioether 2-19 (inferred)
B7: cyclic peptide SEQ ID NO: 240 (peptide)
peptide: YCEENYLDPVQYQYFIYFK(COCH2)Y
modifications: thioether 2-19 (inferred)
B8: cyclic peptide SEQ ID NO: 228 (peptide)
peptide: YCEENYLDNEQYQYFIYFK(COCH2)Y
modifications: thioether 2-19 (inferred)
B9: cyclic peptide SEQ ID NO: 227 (peptide)
peptide: YCEENYLDWEQYQYFIYFK(COCH2)Y
modifications: thioether 2-19 (inferred)
B10: cyclic peptide SEQ ID NO: 234 (peptide)
peptide: YCEENYLDREQYQYFIYFK(COCH2)Y
modifications: thioether 2-19 (inferred)
B11: cyclic peptide SEQ ID NO: 230 (peptide)
peptide: YCEENYLDSEQYQYFIYFK(COCH2)Y
modifications: thioether 2-19 (inferred)
B12: cyclic peptide SEQ ID NO: 218 (peptide)
peptide: YCEENYLEPEQYQYFIYFK(COCH2)Y
modifications: thioether 2-19 (inferred)
B13: cyclic peptide SEQ ID NO: 237 (peptide)
peptide: YCEENYLDPPQYQYFIYFK(COCH2)Y
modifications: thioether 2-19 (inferred)
B14: cyclic peptide SEQ ID NO: 217 (peptide)
peptide: YCEENYLTPEQYQYFIYFK(COCH2)Y
modifications: thioether 2-19 (inferred)
B15: cyclic peptide SEQ ID NO: 219 (peptide)
peptide: YCEENYLRPEQYQYFIYFK(COCH2)Y
modifications: thioether 2-19 (inferred)
B16: cyclic peptide SEQ ID NO: 238 (peptide)
peptide: YCEENYLDPLQYQYFIYFK(COCH2)Y
modifications: thioether 2-19 (inferred)
B17: cyclic peptide SEQ ID NO: 222 (peptide)
peptide: YCEENYLDLEQYQYFIYFK(COCH2)Y
modifications: thioether 2-19 (inferred)
B18: cyclic peptide SEQ ID NO: 209 (peptide)
peptide: YCEENYLIPEQYQYFIYFK(COCH2)Y
modifications: thioether 2-19 (inferred)
B19: cyclic peptide SEQ ID NO: 221 (peptide)
peptide: YCEENYLDGEQYQYFIYFK(COCH2)Y
modifications: thioether 2-19 (inferred)
B20: cyclic peptide SEQ ID NO: 235 (peptide)
peptide: YCEENYLDHEQYQYFIYFK(COCH2)Y
modifications: thioether 2-19 (inferred)
B21: cyclic peptide SEQ ID NO: 224 (peptide)
peptide: YCEENYLDVEQYQYFIYFK(COCH2)Y
modifications: thioether 2-19 (inferred)
B22: cyclic peptide SEQ ID NO: 215 (peptide)
peptide: YCEENYLQPEQYQYFIYFK(COCH2)Y
modifications: thioether 2-19 (inferred)
B23: cyclic peptide SEQ ID NO: 225 (peptide)
peptide: YCEENYLDFEQYQYFIYFK(COCH2)Y
modifications: thioether 2-19 (inferred)
B24: cyclic peptide SEQ ID NO: 229 (peptide)
peptide: YCEENYLDQEQYQYFIYFK(COCH2)Y
modifications: thioether 2-19 (inferred)
B25: cyclic peptide SEQ ID NO: 226 (peptide)
peptide: YCEENYLDYEQYQYFIYFK(COCH2)Y
modifications: thioether 2-19 (inferred)
B26: cyclic peptide SEQ ID NO: 213 (peptide)
peptide: YCEENYLWPEQYQYFIYFK(COCH2)Y
modifications: thioether 2-19 (inferred)
B27: cyclic peptide SEQ ID NO: 231 (peptide)
peptide: YCEENYLDTEQYQYFIYFK(COCH2)Y
modifications: thioether 2-19 (inferred)
B28: cyclic peptide SEQ ID NO: 239 (peptide)
peptide: YCEENYLDPIQYQYFIYFK(COCH2)Y
modifications: thioether 2-19 (inferred)
B29: cyclic peptide SEQ ID NO: 232 (peptide)
peptide: YCEENYLDDEQYQYFIYFK(COCH2)Y
modifications: thioether 2-19 (inferred)
B30: cyclic peptide SEQ ID NO: 211 (peptide)
peptide: YCEENYLFPEQYQYFIYFK(COCH2)Y
modifications: thioether 2-19 (inferred)
B31: cyclic peptide SEQ ID NO: 216 (peptide)
peptide: YCEENYLSPEQYQYFIYFK(COCH2)Y
modifications: thioether 2-19 (inferred)
B32: cyclic peptide SEQ ID NO: 210 (peptide)
peptide: YCEENYLVPEQYQYFIYFK(COCH2)Y
modifications: thioether 2-19 (inferred)
B33: cyclic peptide SEQ ID NO: 214 (peptide)
peptide: YCEENYLNPEQYQYFIYFK(COCH2)Y
modifications: thioether 2-19 (inferred)

Each binder was assayed against T1, Recombinant Human FGFR2 alpha (IIIc) Fc Chimera Protein, CF (R&D systems, 712-FR-050) (human, UniProt P21802 22-377) (assay: ELISA on plate-bound FGFR2-Fc).
T1 construct: bought; not shown: Fc part of the chimera
T1 sequence (P21802 22-377, change not shown): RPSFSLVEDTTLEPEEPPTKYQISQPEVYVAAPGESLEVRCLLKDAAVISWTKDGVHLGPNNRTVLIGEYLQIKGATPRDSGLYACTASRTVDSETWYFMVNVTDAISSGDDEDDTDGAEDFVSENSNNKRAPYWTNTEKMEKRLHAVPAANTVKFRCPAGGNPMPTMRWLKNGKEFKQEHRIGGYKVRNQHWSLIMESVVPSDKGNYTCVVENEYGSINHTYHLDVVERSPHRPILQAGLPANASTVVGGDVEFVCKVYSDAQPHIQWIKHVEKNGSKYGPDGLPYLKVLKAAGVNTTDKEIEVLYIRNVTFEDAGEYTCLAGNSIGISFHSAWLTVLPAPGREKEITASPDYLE
Experimental: First, 5 ng of Recombinant Human FGFR2 alpha (IIIc) Fc Chimera Protein (R&D systems, 712-FR-050) was immobilized in each well of a 96-well plate, and blocked with Pierce Protein-Free (PBS) Blocking Buffer (Thermo, 37572), and a peptide diluted with Can Get Signal Immunoreaction Enhancer Solution I (TOYOBO, NKB-101) was then added and reacted at room temperature for 3 hours. After washing with 0.05% Tween 20-containing phosphate buffered saline (PBS), an anti-Myc antibody (Cell Signaling, 14038S) diluted with Can Get Signal Immunoreaction Enhancer Solution II (TOYOBO, NKB-101) was added and reacted at room temperature for 2 hours. After washing with 0.05% Tween 20-containing PBS, SuperSignal ELISA Femto Substrate (Thermo, 37075) was added, and the luminescence amount was measured. The dose-response relationship was calculated from using the difference between the luminescence amount in the well in which FGFR was immobilized and the luminescence amount in the well in which FGFR was not immobilized, and the concentration of the peptide at the time of reaction, and the binding affinity to FGFR was evaluated according to the following evaluation criteria. The evaluation result preferably satisfies the evaluation criteria A, B, or C.

| ELISA luminescence signal at 10 nmol/L peptide, relative to SEQ ID NO: 47 (=1) [ratio] | Binder |
| --- | --- |
| 0.1 to 0.5 | B1 |
| ≥ 0.7 | B2 |
| ≥ 0.7 | B3 |
| 0.1 to 0.5 | B4 |
| ≥ 0.7 | B5 |
| ≥ 0.7 | B6 |
| ≥ 0.7 | B7 |
| ≥ 0.7 | B8 |
| ≥ 0.7 | B9 |
| ≥ 0.7 | B10 |
| ≥ 0.7 | B11 |
| ≥ 0.7 | B12 |
| ≥ 0.7 | B13 |
| ≥ 0.7 | B14 |
| 0.1 to 0.5 | B15 |
| ≥ 0.7 | B16 |
| ≥ 0.7 | B17 |

| ELISA luminescence signal at 10 nmol/L peptide, relative to SEQ ID NO: 47 (=1) [ratio] | Binder |
| --- | --- |
| 0.1 to 0.5 | B18 |
| ≥ 0.7 | B19 |
| ≥ 0.7 | B20 |
| ≥ 0.7 | B21 |
| ≥ 0.7 | B22 |
| ≥ 0.7 | B23 |
| ≥ 0.7 | B24 |
| ≥ 0.7 | B25 |
| 0.5 to 0.7 | B26 |
| ≥ 0.7 | B27 |
| ≥ 0.7 | B28 |
| ≥ 0.7 | B29 |
| ≥ 0.7 | B30 |
| ≥ 0.7 | B31 |
| 0.1 to 0.5 | B32 |
| ≥ 0.7 | B33 |
